IntAct's records for PubMed 31515488

B1: Protein FAM167A (Homo sapiens), Q96KS9 (parent)
chain: MSVPQIHVEEVGAEEGAGAAAPPDDHLRSLKALTEKLRLETRRPSYLEWQARLEEHTWPFPRPAAEPQASLEEGERGGQEPLLPLREAGQHPPSARSASQGARPLSTGKLEGFQSIDEAIAWLRKELTEMRLQDQQLARQLMRLRGDINKLKIEHTCRLHRRMLNDATYELEERDELADLFCDSPLASSFSLSTPLKLIGVTKMNINSRRFSLC
partner: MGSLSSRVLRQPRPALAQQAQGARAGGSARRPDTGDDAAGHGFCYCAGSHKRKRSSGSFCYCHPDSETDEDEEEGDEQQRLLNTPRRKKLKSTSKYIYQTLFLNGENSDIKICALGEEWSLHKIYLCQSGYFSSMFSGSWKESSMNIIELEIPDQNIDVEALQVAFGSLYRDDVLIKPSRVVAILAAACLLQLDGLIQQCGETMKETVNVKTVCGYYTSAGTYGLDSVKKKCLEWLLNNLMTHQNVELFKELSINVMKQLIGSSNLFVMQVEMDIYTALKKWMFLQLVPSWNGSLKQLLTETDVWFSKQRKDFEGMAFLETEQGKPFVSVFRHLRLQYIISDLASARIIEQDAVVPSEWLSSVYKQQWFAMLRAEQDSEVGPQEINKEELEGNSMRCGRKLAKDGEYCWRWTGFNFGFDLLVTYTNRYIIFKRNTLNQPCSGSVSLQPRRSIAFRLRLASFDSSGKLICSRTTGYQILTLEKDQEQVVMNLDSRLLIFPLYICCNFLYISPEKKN
B2: PDZ and LIM domain protein 5 (Homo sapiens), Q96HC4 (parent)
chain: MSNYSVSLVGPAPWGFRLQGGKDFNMPLTISSLKDGGKAAQANVRIGDVVLSIDGINAQGMTHLEAQNKIKGCTGSLNMTLQRASAAPKPEPVPVQKGEPKEVVKPVPITSPAVSKVTSTNNMAYNKAPRPFGSVSSPKVTSIPSPSSAFTPAHATTSSHASPSPVAAVTPPLFAASGLHANANLSADQSPSALSAGKTAVNVPRQPTVTSVCSETSQELAEGQRRGSQGDSKQQNGPPRKHIVERYTEFYHVPTHSDASKKRLIEDTEDWRPRTGTTQSRSFRILAQITGTEHLKESEADNTKKANNSQEPSPQLASSVASTRSMPESLDSPTSGRPGVTSLTAAAAFKPVGSTGVIKSPSWQRPNQGVPSTGRISNSATYSGSVAPANSALGQTQPSDQDTLVQRAEHIPAGKRTPMCAHCNQVIRGPFLVALGKSWHPEEFNCAHCKNTMAYIGFVEEKGALYCELCYEKFFAPECGRCQRKILGEVISALKQTWHVSCFVCVACGKPIRNNVFHLEDGEPYCETDYYALFGTICHGCEFPIEAGDMFLEALGYTWHDTCFVCSVCCESLEGQTFFSKKDKPLCKKHAHSVNF
B3: Protein LDOC1 (Homo sapiens), O95751 (parent)
chain: MVDELVLLLHALLMRHRALSIENSQLMEQLRLLVCERASLLRQVRPPSCPVPFPETFNGESSRLPEFIVQTASYMLVNENRFCNDAMKVAFLISLLTGEAEEWVVPYIEMDSPILGDYRAFLDEMKQCFGWDDDEDDDDEEEEDDY
partner: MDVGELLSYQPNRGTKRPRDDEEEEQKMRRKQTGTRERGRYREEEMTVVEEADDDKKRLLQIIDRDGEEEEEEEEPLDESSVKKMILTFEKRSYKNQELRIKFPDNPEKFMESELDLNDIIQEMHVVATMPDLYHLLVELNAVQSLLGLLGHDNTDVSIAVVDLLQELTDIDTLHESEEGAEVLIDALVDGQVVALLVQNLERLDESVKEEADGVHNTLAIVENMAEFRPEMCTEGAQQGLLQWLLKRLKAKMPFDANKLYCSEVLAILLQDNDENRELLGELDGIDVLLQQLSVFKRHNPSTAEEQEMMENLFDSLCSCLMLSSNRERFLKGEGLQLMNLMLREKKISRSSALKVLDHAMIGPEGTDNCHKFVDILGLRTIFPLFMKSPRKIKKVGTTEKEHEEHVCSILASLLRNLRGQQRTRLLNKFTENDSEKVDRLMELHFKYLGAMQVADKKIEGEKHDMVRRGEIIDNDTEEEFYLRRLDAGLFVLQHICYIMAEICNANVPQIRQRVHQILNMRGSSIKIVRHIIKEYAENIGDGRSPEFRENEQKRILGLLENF
B4: Keratin-associated protein 5-9 (Homo sapiens), P26371 (parent)
chain: MGCCGCSGGCGSSCGGCDSSCGSCGSGCRGCGPSCCAPVYCCKPVCCCVPACSCSSCGKRGCGSCGGSKGGCGSCGCSQCSCCKPCCCSSGCGSSCCQCSCCKPYCSQCSCCKPCCSSSGRGSSCCQSSCCKPCCSSSGCGSSCCQSSCCKPCCSQSRCCVPVCYQCKI
partner: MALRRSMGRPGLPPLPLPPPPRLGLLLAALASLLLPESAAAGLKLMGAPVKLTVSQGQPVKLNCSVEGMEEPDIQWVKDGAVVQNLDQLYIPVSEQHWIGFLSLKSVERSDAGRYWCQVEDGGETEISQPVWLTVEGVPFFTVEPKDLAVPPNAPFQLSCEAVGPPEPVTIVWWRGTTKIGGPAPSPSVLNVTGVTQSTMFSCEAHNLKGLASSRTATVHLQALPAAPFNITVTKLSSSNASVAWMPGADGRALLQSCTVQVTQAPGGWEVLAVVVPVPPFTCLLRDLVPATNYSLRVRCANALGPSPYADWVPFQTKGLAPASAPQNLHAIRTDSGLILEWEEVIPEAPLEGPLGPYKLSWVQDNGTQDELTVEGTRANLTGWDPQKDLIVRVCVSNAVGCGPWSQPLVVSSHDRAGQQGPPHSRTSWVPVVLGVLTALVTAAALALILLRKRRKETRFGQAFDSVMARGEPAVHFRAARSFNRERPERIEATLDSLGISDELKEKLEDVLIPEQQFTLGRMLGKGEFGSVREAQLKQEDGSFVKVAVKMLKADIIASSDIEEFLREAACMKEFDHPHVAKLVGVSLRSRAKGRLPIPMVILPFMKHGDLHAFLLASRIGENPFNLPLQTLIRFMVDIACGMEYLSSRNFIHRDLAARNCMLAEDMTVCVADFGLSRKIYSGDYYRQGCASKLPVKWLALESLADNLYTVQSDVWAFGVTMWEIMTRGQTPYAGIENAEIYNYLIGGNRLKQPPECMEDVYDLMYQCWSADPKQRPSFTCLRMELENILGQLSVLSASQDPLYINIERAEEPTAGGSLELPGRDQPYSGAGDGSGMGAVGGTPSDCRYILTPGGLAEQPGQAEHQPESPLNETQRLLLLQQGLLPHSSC
B5: E3 ubiquitin-protein ligase MARCHF5 (Homo sapiens), Q9NX47 (parent)
chain: MPDQALQQMLDRSCWVCFATDEDDRTAEWVRPCRCRGSTKWVHQACLQRWVDEKQRGNSTARVACPQCNAEYLIVFPKLGPVVYVLDLADRLISKACPFAAAGIMVGSIYWTAVTYGAVTVMQVVGHKEGLDVMERADPLFLLIGLPTIPVMLILGKMIRWEDYVLRLWRKYSNKLQILNSIFPGIGCPVPRIPAEANPLADHVSATRILCGALVFPTIATIVGKLMFSSVNSNLQRTILGGIAFVAIKGAFKVYFKQQQYLRQAHRKILNYPEQEEA
partner: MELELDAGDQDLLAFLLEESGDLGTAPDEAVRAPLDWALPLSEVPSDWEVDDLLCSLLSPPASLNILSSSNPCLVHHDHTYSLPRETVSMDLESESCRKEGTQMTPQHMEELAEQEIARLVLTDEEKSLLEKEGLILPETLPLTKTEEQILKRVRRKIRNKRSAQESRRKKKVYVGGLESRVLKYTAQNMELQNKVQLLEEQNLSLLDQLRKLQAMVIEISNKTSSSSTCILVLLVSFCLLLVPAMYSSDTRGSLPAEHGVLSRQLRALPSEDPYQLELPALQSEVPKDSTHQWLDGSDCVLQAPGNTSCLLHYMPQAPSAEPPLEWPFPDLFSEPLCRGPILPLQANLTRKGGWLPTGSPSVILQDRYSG
B6: Protein FAM9B (Homo sapiens), Q8IZU0 (parent)
chain: MAAWGKKHAGKDPVRDECEERNRFTETREEDVTDEHGEREPFAETDEHTGANTKKPEDTAEDLTAKRKRMKMDKTCSKTKNKSKHALRKKQLKRQKRDYIHSLKLLNVLEEYITDEQKEEEEEEGEEEELIRIFQEQQKKWQQYRSVRRERLKEMKLLRDQFVKALEDFEDLCDRVFSDEDSELDN
partner: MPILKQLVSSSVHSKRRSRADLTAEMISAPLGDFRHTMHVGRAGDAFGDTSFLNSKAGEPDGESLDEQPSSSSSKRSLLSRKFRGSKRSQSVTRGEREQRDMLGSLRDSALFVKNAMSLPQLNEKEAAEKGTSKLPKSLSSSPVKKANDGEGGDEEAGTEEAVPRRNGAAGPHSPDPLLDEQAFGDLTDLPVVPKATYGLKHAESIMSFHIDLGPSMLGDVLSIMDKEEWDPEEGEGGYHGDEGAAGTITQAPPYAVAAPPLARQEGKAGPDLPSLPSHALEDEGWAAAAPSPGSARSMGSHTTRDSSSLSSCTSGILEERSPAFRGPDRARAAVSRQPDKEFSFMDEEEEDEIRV
B7: Katanin p60 ATPase-containing subunit A-like 1 (Homo sapiens), Q9BW62 (parent)
chain: MNLAEICDNAKKGREYALLGNYDSSMVYYQGVMQQIQRHCQSVRDPAIKGKWQQVRQELLEEYEQVKSIVSTLESFKIDKPPDFPVSCQDEPFRDPAVWPPPVPAEHRAPPQIRRPNREVRPLRKEMAGVGARGPVGRAHPISKSEKPSTSRDKDYRARGRDDKGRKNMQDGASDGEMPKFDGAGYDKDLVEALERDIVSRNPSIHWDDIADLEEAKKLLREAVVLPMWMPDFFKGIRRPWKGVLMVGPPGTGKTMLAKAVATECGTTFFNVSSSTLTSKYRGESEKLVRLLFEMARFYAPTTIFIDEIDSICSRRGTSDEHEASRRVKSELLIQMDGVGGALENDDPSKMVMVLAATNFPWDIDEALRRRLEKRIYIPLPTAKGRAELLKINLREVELDPDIQLEDIAEKIEGYSGADITNVCRDASLMAMRRRINGLSPEEIRALSKEELQMPVTKGDFELALKKIAKSVSAADLEKYEKWMVEFGSA
partner: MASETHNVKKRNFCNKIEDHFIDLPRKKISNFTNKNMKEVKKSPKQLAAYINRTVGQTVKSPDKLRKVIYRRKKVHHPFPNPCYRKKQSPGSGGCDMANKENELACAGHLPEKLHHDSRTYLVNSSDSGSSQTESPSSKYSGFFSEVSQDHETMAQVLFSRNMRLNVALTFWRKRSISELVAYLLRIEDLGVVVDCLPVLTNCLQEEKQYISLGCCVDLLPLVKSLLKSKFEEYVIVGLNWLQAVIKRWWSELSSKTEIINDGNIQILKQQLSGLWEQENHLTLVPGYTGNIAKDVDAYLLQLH

Variants of: B1
Details: with gmcl1_human GMCL1, Q96IK5

| Variant | effect of a mutation on the interaction |
| --- | --- |
| S99T | with no effect |

Variants of: B2
Details: with cc136_human CCDC136, Q96JN2
Sequence of cc136_human CCDC136, Q96JN2 (Q96JN2 whole entry): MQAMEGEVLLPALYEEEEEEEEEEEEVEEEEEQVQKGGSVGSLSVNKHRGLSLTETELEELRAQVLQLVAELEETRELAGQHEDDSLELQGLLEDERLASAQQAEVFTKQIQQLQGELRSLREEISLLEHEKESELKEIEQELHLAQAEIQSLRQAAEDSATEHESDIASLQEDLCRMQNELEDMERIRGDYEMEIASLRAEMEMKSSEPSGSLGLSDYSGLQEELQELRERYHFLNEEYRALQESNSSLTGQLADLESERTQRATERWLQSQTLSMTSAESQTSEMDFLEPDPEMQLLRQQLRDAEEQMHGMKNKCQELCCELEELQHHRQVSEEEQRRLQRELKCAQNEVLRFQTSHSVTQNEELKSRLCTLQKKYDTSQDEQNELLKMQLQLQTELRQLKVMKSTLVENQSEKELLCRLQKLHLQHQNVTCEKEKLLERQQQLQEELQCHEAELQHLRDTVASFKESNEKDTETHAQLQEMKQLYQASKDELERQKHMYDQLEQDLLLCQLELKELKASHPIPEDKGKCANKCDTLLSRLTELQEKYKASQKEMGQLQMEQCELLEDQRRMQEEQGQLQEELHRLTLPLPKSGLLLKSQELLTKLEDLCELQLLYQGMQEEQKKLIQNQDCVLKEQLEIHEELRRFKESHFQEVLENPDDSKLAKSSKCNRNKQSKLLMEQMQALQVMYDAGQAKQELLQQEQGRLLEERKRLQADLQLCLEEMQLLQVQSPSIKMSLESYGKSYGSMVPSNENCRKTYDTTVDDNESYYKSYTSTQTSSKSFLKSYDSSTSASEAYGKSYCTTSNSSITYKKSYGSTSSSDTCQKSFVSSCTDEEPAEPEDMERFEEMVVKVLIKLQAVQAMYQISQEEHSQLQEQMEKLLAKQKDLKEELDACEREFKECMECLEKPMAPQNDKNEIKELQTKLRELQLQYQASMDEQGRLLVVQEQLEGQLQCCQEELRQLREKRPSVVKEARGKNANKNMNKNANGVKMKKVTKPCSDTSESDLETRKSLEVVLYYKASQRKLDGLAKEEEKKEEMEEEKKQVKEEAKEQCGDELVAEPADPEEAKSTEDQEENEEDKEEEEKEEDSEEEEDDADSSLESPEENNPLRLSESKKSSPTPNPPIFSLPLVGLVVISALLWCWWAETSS

| Variant | effect of a mutation on the interaction |
| --- | --- |
| P388S | with no effect |
| S136F | with no effect |

Variants of: B2
Details: with coil_human COIL

| Variant | effect of a mutation on the interaction |
| --- | --- |
| P388S | with no effect |

Variants of: B3
Details: with ctbl1_human CTNNBL1, Q8WYA6

| Variant | effect of a mutation on the interaction |
| --- | --- |
| L12H | disrupting interaction strength |

Variants of: B4
Details: with tyro3_human TYRO3, Q06418

| Variant | effect of a mutation on the interaction |
| --- | --- |
| Y40C | disrupting interaction strength |

Variants of: B5
Details: with creb3_human CREB3, O43889

| Variant | effect of a mutation on the interaction |
| --- | --- |
| D202N | with no effect |
| T20A | with no effect |

Variants of: B6
Details: with borg4_human CDC42EP4, Q9H3Q1

| Variant | effect of a mutation on the interaction |
| --- | --- |
| R23H | with no effect |

Variants of: B7
Details: with ktbl1_human KATNBL1, Q9H079

| Variant | effect of a mutation on the interaction |
| --- | --- |
| V272I | with no effect |
| A300S | with no effect |
| I142M | with no effect |
